Source: US10117916B2, “Peptides and combination of peptides for use in immunotherapy against CLL and other cancers” (immatics biotechnologies GmbH, priority 2015, dated 2018)

Target: HLA-A*02:01 (Homo sapiens, UniProt P04439, D140Y/D185E/D98H/E176V/E277Q/G131W/G231S/I119V/I121R/I166T/I218V/L300P/L318F/N151K/N90K/P208A/P217A/Q86G/Q94H/R138H/R169H/T345S)
Assay: MHC binding assay: UV-ligand exchange with β2m ELISA (peptide exchange yield)
Conditions: MHC class I binding score; binding to HLA-A*02:01 ranged by peptide exchange yield (UV-ligand exchange, β2m ELISA)
Description: Candidate peptides for T cell based therapies according to the present invention were further tested for their MHC binding capacity (affinity). The individual peptide-MHC complexes were produced by UV-ligand exchange, where a UV-sensitive peptide is cleaved upon UV-irradiation, and exchanged with the peptide of interest as analyzed. Only peptide candidates that can effectively bind and stabilize the peptide-receptive MHC molecules prevent dissociation of the MHC complexes. To determine the yield of the exchange reaction, an ELISA was performed based on the detection of the light chain (β2m) of stabilized MHC complexes. The assay was performed as generally described in Rodenko et al. (Rodenko et al., 2006).
96 well MAXISorp plates (NUNC) were coated over night with 2 ug/ml streptavidin in PBS at room temperature, washed 4× and blocked for 1 h at 37° C. in 2% BSA containing blocking buffer. Refolded HLA-A*02:01/MLA-001 monomers served as standards, covering the range of 15-500 ng/ml. Peptide-MHC monomers of the UV-exchange reaction were diluted 100 fold in blocking buffer. Samples were incubated for 1 h at 37° C., washed four times, incubated with 2 ug/ml HRP conjugated anti-β2m for 1 h at 37° C., washed again and detected with TMB solution that is stopped with […]. Absorption was measured at 450 nm. Candidate peptides that show a high exchange yield (preferably higher than 50%, most preferred higher than 75%) are generally preferred for a generation and production of antibodies or fragments thereof, and/or T cell receptors or fragments thereof, as they show sufficient avidity to the MHC molecules and prevent dissociation of the MHC complexes.

Substance | Peptide Exchange
127 (LLPTAPTTV; listed as Homo sapiens) [compound 127] | ″+++″ (≥50 = +++)
247 (KLKDRLPSI; listed as Homo sapiens) [compound 247] | ″++″ (≥20% = ++)
256 (QLLPVSNVVSV; listed as Homo sapiens) [compound 256] | ″+++″ (≥50 = +++)
385 (YTIPLAIKL; listed as Homo sapiens) [compound 385] | ″+++″ (≥50 = +++)
135 (MTAGFSTIAGSV; listed as Homo sapiens) [compound 135] | ″+″ (≥10% = +)
242 (ILLGIQELL; listed as Homo sapiens) [compound 242] | ″+++″ (≥50 = +++)
230 (FLQDSKVIFV; listed as Homo sapiens) [compound 230] | ″+++″ (≥50 = +++)
80 (VLIEDELEEL; listed as Homo sapiens) [compound 80] | ″++″ (≥20% = ++)
298 (IILPVEVEV; listed as Homo sapiens) [compound 298] | ″+++″ (≥50 = +++)
303 (ILSQPTPSL; listed as Homo sapiens) [compound 303] | ″+++″ (≥50 = +++)
22 (ALWDPVIEL; listed as Homo sapiens) [compound 22] | ″+++″ (≥50 = +++)
350 (ALEDRVWEL; listed as Homo sapiens) [compound 350] | ″+++″ (≥50 = +++)
176 (VLAEQNIIPSA; listed as Homo sapiens) [compound 176] | ″+++″ (≥50 = +++)
263 (SQWEDIHVV; listed as Homo sapiens) [compound 263] | ″+++″ (≥50 = +++)
319 (QVIPQLQTV; listed as Homo sapiens) [compound 319] | ″+++″ (≥50 = +++)
261 (SLVEAQGWLV; listed as Homo sapiens) [compound 261] | ″+++″ (≥50 = +++)
276 (VLNDGAPNV; listed as Homo sapiens) [compound 276] | ″+++″ (≥50 = +++)
55 (FMEPTLLML; listed as Homo sapiens) [compound 55] | ″+++″ (≥50 = +++)
308 (SLYDVSRMYV; listed as Homo sapiens) [compound 308] | ″++++″ (≥75% = ++++)
181 (VLLSIPFVSV; listed as Homo sapiens) [compound 181] | ″+++″ (≥50 = +++)
25 (ATYSGLESQSV; listed as Homo sapiens) [compound 25] | ″++″ (≥20% = ++)
7 (ALLERTGYTL; listed as Homo sapiens) [compound 7] | ″+++″ (≥50 = +++)
383 (YLLREWVNL; listed as Homo sapiens) [compound 383] | ″++++″ (≥75% = ++++)
160 (SLSFLVPSL; listed as Homo sapiens) [compound 160] | ″+++″ (≥50 = +++)
4 (VIAELPPKVSV; listed as Homo sapiens) [compound 4] | ″+++″ (≥50 = +++)
199 (YLVELSSLL; listed as Homo sapiens) [compound 199] | ″++++″ (≥75% = ++++)
131 (LQALEVLKI; listed as Homo sapiens) [compound 131] | ″+″ (≥10% = +)
210 (KLLVQDFFL; listed as Homo sapiens) [compound 210] | ″+++″ (≥50 = +++)
191 (YIFDGSDGGV; listed as Homo sapiens) [compound 191] | ″+++″ (≥50 = +++)
